Assay results published in PMC2800223.

Biological target: GST-HuD (UniProt P26378)
Assay: filter binding

GST-HuD, sequence (P26378 whole entry): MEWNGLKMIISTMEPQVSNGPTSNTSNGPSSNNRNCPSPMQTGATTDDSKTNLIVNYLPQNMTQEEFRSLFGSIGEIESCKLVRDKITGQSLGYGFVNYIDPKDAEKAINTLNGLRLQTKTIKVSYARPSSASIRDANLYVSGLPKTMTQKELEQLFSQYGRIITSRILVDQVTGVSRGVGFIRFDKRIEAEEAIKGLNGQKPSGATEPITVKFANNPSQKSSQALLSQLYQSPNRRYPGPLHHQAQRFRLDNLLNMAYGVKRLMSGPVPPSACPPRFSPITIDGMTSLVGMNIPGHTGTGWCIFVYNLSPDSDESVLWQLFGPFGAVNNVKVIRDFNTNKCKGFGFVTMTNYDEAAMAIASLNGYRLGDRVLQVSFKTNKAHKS

Row | Sequence | Kd [µM]
1 | CCCUCCCUCUCUC [motif 1 oligoribonucleotide] | 0.0273
2 | UUUUGUUUUGUUU [motif 2 oligoribonucleotide] | 0.0069
